The text below walks through data of patent publication US12404345B2, “Humanized antibodies against iRHOM2” (SCIRHOM GMBH, priority 2021, dated 2025).

In assay [1] the target is T1, human iRhom2 variant hiR2-FL-K536A-T7 (Homo sapiens, UniProt Q6PJF5, K536A).
T1 construct: expressed in transfected cells; host or cells: immortalized iRhom1/2-/- DKO mouse embryonic fibroblasts, pMSCV retroviral infection
T1 sequence (Q6PJF5 1-856 K536A): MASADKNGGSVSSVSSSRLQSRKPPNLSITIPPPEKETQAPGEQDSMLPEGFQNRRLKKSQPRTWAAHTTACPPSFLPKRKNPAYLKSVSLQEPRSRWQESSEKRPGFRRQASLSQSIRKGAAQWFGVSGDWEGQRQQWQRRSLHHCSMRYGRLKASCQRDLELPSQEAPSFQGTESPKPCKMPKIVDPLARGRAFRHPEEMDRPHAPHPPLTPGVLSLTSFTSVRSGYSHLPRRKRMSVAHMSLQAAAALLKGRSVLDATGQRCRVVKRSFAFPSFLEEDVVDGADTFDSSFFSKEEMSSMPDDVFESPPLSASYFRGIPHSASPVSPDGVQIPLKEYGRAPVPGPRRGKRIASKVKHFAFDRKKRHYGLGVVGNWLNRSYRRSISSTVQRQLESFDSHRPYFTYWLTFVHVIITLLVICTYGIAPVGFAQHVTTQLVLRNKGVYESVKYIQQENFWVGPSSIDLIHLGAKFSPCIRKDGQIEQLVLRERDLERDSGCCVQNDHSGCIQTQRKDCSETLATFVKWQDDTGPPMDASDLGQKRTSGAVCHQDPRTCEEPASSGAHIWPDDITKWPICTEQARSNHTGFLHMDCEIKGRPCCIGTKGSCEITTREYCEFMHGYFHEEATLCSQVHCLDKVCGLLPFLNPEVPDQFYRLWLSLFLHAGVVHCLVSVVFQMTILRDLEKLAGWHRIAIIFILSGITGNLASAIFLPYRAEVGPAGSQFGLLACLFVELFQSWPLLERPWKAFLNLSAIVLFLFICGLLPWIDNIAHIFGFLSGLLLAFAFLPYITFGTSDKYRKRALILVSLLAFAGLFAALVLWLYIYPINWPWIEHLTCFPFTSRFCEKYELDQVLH
In words: FACS epitope mapping on MEF-DKO-hiR2-FL-K536A-T7 cells. It is filed as binding. Conditions: antibody at 3 μg/ml, compared with MEF-DKO-hiR2-FL-WT-T7 cells. An excerpt: This example describes the generation of iRhom1/2−/− DKO MEF populations expressing the 137 single amino acid substitution or deletion variants as well as their characterization in terms of cell surface localization and functional activity as indicators of proper protein conformation. Subsequently, binding analyses of the humanized antibodies 16-B-03, 16-B-05, 16-B-07, 23-B-04, 42-B-02 and 42-B-04 of the invention on the entire panel of 137 engineered MEF populations expressing human iRhom2 variants with single amino acid substitutions or deletions are described.
In brief, on day 1, Phoenix-ECO cells (American Type Culture Collection, USA) were seeded on 6-well tissue culture plates (Greiner, Germany) in standard growth medium at 8×10^5 cells per well and kept overnight at 37° C., 5% CO2. On day 2, the medium was replaced by fresh medium supplemented with chloroquine (Sigma-Aldrich, USA) at a final concentration of 25 μM. […]

Assay [2] relates to LPS-induced release of endogenous TNFα. Kind of assay: Mouse model for septic shock, LPS-induced TNFα release in serum of genetically humanized mice. Particulars: antibody 250 μg/kg in 200 μL PBS injected 1h before LPS 50 μg per mouse; serum 2h after LPS. It counts as in vivo. As to the method: In the following study, ELISA-based TNFα release assays were performed to verify the inhibitory effects of the antibodies of the invention on LPS-induced release of endogenous TNFα in a mouse model for septic shock. The experiment was conducted using genetically humanized mice, in which parts of the mouse genomic iRhom2 DNA (exons which encode for the antibody binding site) were replaced by the corresponding human genomic DNA sequences. All animal experiments were approved by the Institutional Animal Care and Use Committee of the Hospital for Special Surgery and Weill Cornell Medicine.
On day 1, one group of mice was injected with the antibodies of the invention at a concentration of 250 μg/kg in 200 μL PBS. A second group was injected with the same volume of PBS only (200 μl PBS per mouse). 1h later all mice were subjected to an injection of LPS (Sigma, USA) at a concentration of 50 μg/200 μL per mouse (250 ng/μL). All mice were closely monitored and euthanized after 2h by CO2 inhalation. […]
For measuring TNFα release, Mouse TNF-α Uncoated ELISA Kit (Invitrogen, USA) was used. […] The color reaction was stopped by the addition of 100 μl 2N sulfuric acid (Sigma, USA) and the ELISA plate was read at the wavelength of 450 nm using a Multiskan Titertek Plate reader (VWR, USA).

B1: 42-B-02: humanized antibody binding human iRhom2; HCVD SEQ ID NO 33, LCVD SEQ ID NO 37 (antibody, V domains shown)
VH: QVTLRESGPALVKPTQTLTLTCTFSGFSLSTFGRGVGWIRQPPGKALEWLAHIWWDDEKYYNSALKSRLTISKDTSKNQVVLTITNMDPVDTATYYCARIQNYGSNYWYFDVWGQGTLVTVSS
VL: AIQLTQSPSSLSASVGDRVTITCRASSRISYMFWYQQKPGKAPKVLIYDTSNLASGVPSRFSGSGSGTDYTLTISSLQPEDFATYYCQQWNSYPLTFGQGTKLEIK
modifications: antibody sequences
Take B1: the “effect of substitution of lysine 536 of human iRhom2 by alanine on antibody binding (MEF-DKO-hiR2-FL-K536A-T7 cells)” value in assay [1] is “strongly impairs”. Moreover, the “LPS-induced release of TNFα in serum of genetically humanized mice, percent release (buffer treated control animals set to 100%)” value in assay [2] is 17.3%.
